# Test results: article PMC10577934, “Semi-rational engineering an aldo–keto reductase for stereocomplementary reduction of α-keto amide compounds” (Microbial Cell Factories, 2023)
# Changes are numbered by the printed parent chain. Numbers in names are those of the source.
# B1: iolS (Bacillus subtilis subsp. subtilis str. 168) (protein)
# chain: MKKAKLGKSDLQVFPIGLGTNAVGGHNLYPNLNEETGKELVREAIRNGVTMLDTAYIYGIGRSEELIGEVLREFNREDVVIATKAAHRKQGNDFVFDNSPDFLKKSVDESLKRLNTDYIDLFYIHFPDEHTPKDEAVNALNEMKKAGKIRSIGVSNFSLEQLKEANKDGLVDVLQGEYNLLNREAEKTFFPYTKEHNISFIPYFPLVSGLLAGKYTEDTTFPEGDLRNEQEHFKGERFKENIRKVNKLAPIAEKHNVDIPHIVLAWYLARPEIDILIPGAKRADQLIDNIKTADVTLSQEDISFIDKLFA
# notes: pET28a, His-tagged, expressed in E. coli BL21(DE3), Ni-NTA purified
# B2: iolS (Bacillus subtilis subsp. subtilis str. 168; I57F) (protein)
# chain: B1 chain with I57F
# notes: as for B1
# B3: iolS (Bacillus subtilis subsp. subtilis str. 168; F126L) (protein)
# chain: B1 chain with F126L
# notes: as for B1
# B4: iolS (Bacillus subtilis subsp. subtilis str. 168; N21A) (protein)
# chain: B1 chain with N21A
# notes: as for B1
# B5: iolS (Bacillus subtilis subsp. subtilis str. 168; F126L/I57F) (protein)
# chain: B1 chain with I57F, F126L
# notes: as for B1
# B6: iolS (Bacillus subtilis subsp. subtilis str. 168; F126A/N21A) (protein)
# chain: B1 chain with N21A, F126A
# notes: as for B1
# Substrate: O=C(Nc1ccccc1)C(=O)c1ccccc1
# Test: initial velocity by HPLC of product, nonlinear Michaelis-Menten fit
# Type: biochemical, Bacillus subtilis
# Conditions: NAD(P)H cofactor, potassium phosphate 100 mM pH 7.0, 30 °C
# Description: initial velocity by HPLC of product, nonlinear Michaelis-Menten fit on iolS
Protein,Km [µM],kcat [s⁻¹],kcat/Km [M⁻¹ s⁻¹]
B1,1810 ± 130,3.53 ± 0.12,1950
B2,1720 ± 130,3.96 ± 0.23,2320
B3,1550 ± 220,3.81 ± 0.13,2450
B4,1160 ± 160,4.1 ± 0.12,3530
B5,1710 ± 110,4.32 ± 0.14,2510
B6,1650 ± 120,6.4 ± 0.25,3880
